Experimental findings from article PMC4027161 (Nucleic Acids Research, 2014) are described below.

B1: Thermococcus kodakarensis PCNA1 (TK0535) (natural protein, UniProt Q5JF32 1-249, looked up)
chain: MPFEVVFDGAKEFADLIATASNLIDEAAFKFTEEGISMRAMDPSRVVLIDLNLPESIFSKYEVEEPETIGINMDQFKKILKRGKAKDTLILRKGDENFLEITFEGTAKRTFRLPLIDVEELELELPELPFTAKVVLLGEVLKEGIKDASLVSDAIKFIAKENEFTMKAEGETNEVEIRLTLEDEGLLDLEVEEETKSAYGIRYLSDMVKGIGKADEVILRFGNEMPLQMEYMIRDEGRLTFLLAPRVEE
B2: Methanothermobacter thermautotrophicus PCNA (mtPCNA) (natural protein, UniProt O27367 1-244, looked up)
chain: MFKAELNDPNILRTSFDAISSIVDEVQIQLSAEGLRLDALDRSHITYVHLELKAELFDEYVCDEPERINVDTEELMKVLKRAKANDRVILSTDEGNLIIQFEGEAVRTFKIRLIDIEYETPSPPEIEYENEFEVPFQLLKDSIADIDIFSDKITFRVDEDRFIASAEGEFGDAQIEYLHGERIDKPARSIYSLDKIKEMLKADKFSETAIINLGDDMPLKLTLKMASKEGELSFLLAPRIEAEE
B3: Thermococcales inhibitor of PCNA (TIP), encoded by TK0808 (natural protein, Thermococcus kodakarensis, UniProt Q5JH72 1-64, looked up)
chain: MDRKLDEFIGDATPKKVSKEKPVRRKKRLKPTSLDSFLPEEHINYFRDLRIGSKKIRNAKIEEL
B4: Thermococcus kodakarensis PCNA2 (TK0582) (natural protein)
chain: MTFEIVFDSAREFESLIATLEKFFDEAVFQVNMEGIQMRAIDPSRVVLVDLNLPEMLFSKYSVESEEAIAFDLKRFLKVLKLARSRDTLVLRKGGENFLEVGLLGDENTWFKLPLIDANTPEIEIPSLPWTVKAVVLAGALKRAVKAAKLVSDSIYFMATPEKLTFKAEGNDSEVRTVLTMEDPGLLDLEHKMTKAKSAYGVAYLEDILRSLADADEVIIRFGFDIPLLLKYMVRDAGEVSFLIAPRVEEGRS

Data set [1] deals with the molecule itself. The experiment in a line: SEC; Superdex-200 (HR10/30); 100 ug of each protein in 200 ul of 25 mM Tris-HCl pH 8.0, 200 mM NaCl, 0.5 mM EDTA, 10% glycerol; fractions on SDS-PAGE, Coomassie. For orientation: Size exclusion chromatography separates by hydrodynamic size, large species first.
The target of data set [2] is T1, monomeric form of PCNA2 (PCNA2m, R75A-F111E-R143A) (Thermococcus kodakarensis, UniProt Q5JFD3 1-253, R75A | F111E | R143A).
T1 sequence: B4 chain with R75A, F111E, R143A
The data set is described as above. The settings on record: both partners purified.

Data set [3] deals with B1. The data set is described as follows: crystal structure; low resolution X-ray structure of the complex, unpublished observation. The settings on record: both partners purified.
The target of data set [4] is B4. The experiment in a line: HDX-MS; 15 uM protein; PCNA monomer:TIP monomer 1:1, equilibrated at 4 C for 16 h; 20 mM sodium phosphate, 500 mM NaCl, pH 7.6; exchange at 3 C, 30 s to 60 min; pepsin digestion. The settings on record: both partners purified.

Positions count from the first letter of the chain named.

One may read the stoichiometry N as a count of units in the complex or per binding partner. With B1, the “stoichiometry N” value in data set [1] worked out at 3.

Consider B2, for which, in data set [1], the “stoichiometry N” value stood at 3.

For B3, the binding result in data set [2] and in data set [4] was “binds” throughout. Besides, in data set [3], the “stoichiometry N” value came to 1 TIP per PCNA monomer.

For B4, the “stoichiometry N” value in data set [1] amounted to 3.
